Measured values taken from paper PMC9233695, “Structural mechanism of protein recognition by the FW domain of autophagy receptor Nbr1” (Nature Communications, 2022).
Values belong to the molecule of their own block, whether it stands above or below them.

Columns and labels:
[1] = biological target: GST-CtNbr1(635–775) (Chaetomium thermophilum); test: SPR; Biacore T200, 25 °C; GST-FW domain captured by anti-GST antibody on a CM5 chip to about 200 RU; CtAms1 protein flowed, 50 to 1.56 nM; 10 mM HEPES pH 7.4, 150 mM NaCl, 0.05% Tween 20; 1:1 binding model
[2] = biological target: GST-hNBR1(358-498) (human) (UniProt Q14596); test: SPR; Biacore T200, 25 °C; GST-FW domain captured by anti-GST antibody on a CM5 chip to about 700 RU; synthetic peptide flowed, 100 to 3.13 μM; 10 mM HEPES pH 7.4, 150 mM NaCl, 0.05% Tween 20; steady-state model
[3] = biological target: GST-CtNbr1(635–775) (Chaetomium thermophilum); test: as above
[4] = biological target: the molecule itself; test: cryo-EM structure; CtAms1-CtNbr1 FW-MBP fusion protein, 2.2 Å, D2 symmetry

Chain of GST-CtNbr1(635–775) (Chaetomium thermophilum) (main, as listed by the source): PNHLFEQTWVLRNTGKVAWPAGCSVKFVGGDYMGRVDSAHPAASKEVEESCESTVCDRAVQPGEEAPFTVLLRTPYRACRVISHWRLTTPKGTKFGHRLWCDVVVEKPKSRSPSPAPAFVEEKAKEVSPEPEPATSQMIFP
Chain of GST-hNBR1(358-498) (human) (Q14596 358-498): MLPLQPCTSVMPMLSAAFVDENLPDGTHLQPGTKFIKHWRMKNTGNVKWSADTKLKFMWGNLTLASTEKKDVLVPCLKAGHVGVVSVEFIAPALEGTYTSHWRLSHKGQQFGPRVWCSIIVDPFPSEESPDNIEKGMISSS

- Kd [1]: 0.0034 µM
Molecule: FLAG2-His6 (FFH)-tagged CtAms1 (natural protein)

- Kd [2]: 110 µM
- Kd [3]: 23 µM
Molecule: CtAms1(2–15) peptide

B1: CtAms1 in the CtAms1-CtNbr1 FW-MBP fusion protein (natural protein, Chaetomium thermophilum, UniProt G0SGP6 1-1079, looked up)
chain: MGGETFDVKGPRPNDYPLRAPKPVGQLISHIYKDRIAQFYNGGQYEHQNLRAMMKEDSVSGEPHVQLWVWHAPGQTRPSFEEAVSNQFVKTNVGEWFGPSWTTHWFRVVLTVPEHLQNKRLLEFHWDSNSEGLVWSEDGKPLQGLTGGGERVEWILPDSFRDGKEHTIYIEMACNRMFGNAPGGDSIQPPDPNKYFRLDKAEIVAIDPDARQLWIDIWILQDAAREFPGDSWESHKALQVCNEIIEAFELGNRESLKKCRKIAEQYLGPNVDSPNVYNSGKEPLVYAIGHCHIDSCWLWPFAETKRKVVRSWSSQCDLMDRYPELNFVCSQAQQYKWLKQLYPYAFERVKKKVAEGRFHPIGGSWVEHDTNMPSGESLVRQFLYGQRFYESNFGKRCKTFWLPDTFGYSAQLPQLCRLAGMTRFLTQKLSWNNINRFPHTTFNWVALDGSQVICHMPPSETYTAEAHFGDVKRSMSQHKSLDQDNTSLLVFGKGDGGGGPTWVQIEKLRRCRGISDTVGLLPRVHMGSSVDDFFDRLERKADTFVTWYGELYFELHRGTYTTQAKNKKNNRRAEAKLRDLELLATIASVQDKSYKYPKEEFDAMWENVLLCQFHDCLPGSSIEMAYRESDQMYADVFSTAEKIMKGVSQVLGLEPALNHMSTTNTVALNTLPWPRRELVKISEKEAAVAHGTGPFLKLQKLETTKPLVTLRQVTKGAFVLENSQLRVHVEKGVITSLYDKQANREVIPKGQKANQYVIFDDKPLYWQAWDVEVYHLDTRKELPSGETEVHENTPHRVSVVTRTKVSDKSHIQTIIALNGAVEGEQSWVEVQSKVDWHETMKFLKVEFPVDVRNTEASYETAFGIVRRPTHYNTSWDMAKFEVCAHRWADLSEYGYGVSILNDSKYGFATAGQTMRLSLLRSPKAPDAHADMGTHHIRWAILPHQGSLSHVTIRKAFEFNNPTKLYSSPDAAALVAAPPPVWLTPDSSPAIVLDTVKRGEDDEDVSRGELPARKGQSVILRMYDSLGGLARGTVVTTWPLKKVCKVNLLEDDLEVVPWENGRFTVELRPFEVASYRLVLA
notes: full-length Ams1 of Chaetomium thermophilum; the first methionine is processed (density map); model holds residues 2-1079; also called CtAms1_1; CtAms1_3; source: S. pombe (Pnmt1 promoter), fusion protein purified (GFP-Trap beads, released with 3C protease)
- stoichiometry N [4]: 4
